From patent publication US20230071765A1, “COMPOSITIONS HAVING THIOREDOXIN ACTIVITY AND RELATED METHODS” (ORPRO THERAPEUTICS, INC., priority 2020, published 2023) come the findings set out here.

Data set [1] deals with T1, human insulin (Homo sapiens, UniProt P01308).
T1 construct: The two chains of human insulin have a total of six Cys residues which form three disulfide bonds in its mature structure
Nature of the data set: RP-HPLC insulin reduction assay (conversion of insulin heterodimer). As to conditions: for Relative % insulin reduction: relative to maximum. The data set is classed as biochemical. As to the method:
Functional assays 1. Reduction state of ORP100S was quantified using DTNB which reacts with free SH groups resulting in a yellow color change at 412 nm. Fifty microliters of 2.5 mM rhTrx was added to a 96-well plate, followed by 175 microliters of sample buffer and 25 microliters of 6 mM DTNB. After reactions were initiated by the addition of DTNB, change in kinetic absorbance at 412 nm due to DTNB reduction was monitored spectrophotometrically at 30° C. ORP100S concentration was determined by A280 (Nanodrop) using the extinction coefficient of human Trx-1 (7,000). The actual concentrations of free sulfhydryl groups were calculated based on the absorbance at 412 nm and the extinction coefficient of DTNB (14,150) in order to determine the reduction state as percentage of free sulfhydryl. […] 2. Percent of free monomer ORP100S in solution was determined using SEC. Samples were analyzed on a BioBasic S-300 250×4.6 column (Thermo Scientific) run on an Agilent 1100 HPLC system. The SEC-HPLC mobile phase buffer consisted of 40 mM ammonium acetate (pH 5.5), 2 mM EDTA and 450 mM NaCl. Low pH minimized dimerization while the 450 mM NaCl concentration improved resolution. The flow rate was 0.35 mL/min and absorbance was monitored at 280 nm. The length of each run was 20 minutes. The ORP100S monomer percentage was determined by integration of the area under the peak of the monomeric fraction divided by the total area under the curve of the chromatogram. 3. Disulfide bond reduction activity of ORP100S was quantified by assaying the reduction state of a small protein (human insulin) which in its heterodimeric form contains two intermolecular and one intramolecular disulfide, all three of which are known to be suitable thioredoxin substrates. Insulin reduction has classically been used to quantify thioredoxin activity by absorbance change following addition of NADPH and TrxR (Holmgren A., 1979, Thioredoxin catalyzes the reduction of insulin disulfides by dithiothreitol and dihydrolipoamide, J Biol Chem 254:9627-32). Such an approach is not suitable for monothiol C35S thioredoxins ORP-100 and ORP100S due to 1) the lack of cycling resulting from stoichiometric covalent linkage to the disulfide bond substrate and 2) the inability of NADPH and TrxR to reduce Cys32 of the oxidized monothiol Trx active site. Consequently, a new assay was developed based on the use of reverse-phase (RP) HPLC to monitor the rate of conversion of disulfide-bonded insulin heterodimers to monomeric forms. The two chains of human insulin have a total of six Cys residues which form three disulfide bonds in its mature structure. When ORP100S in the reduced form is incubated with dimeric insulin it reacts with these disulfide bonds to disrupt them, simultaneously forming covalent linkages to the ORP100S Cys32. […] The ORP100S samples were incubated with 10 mg/mL insulin for various time points (0-90 min) and the reactions were stopped by addition of iodacetic acid (IA) and trifluoroacetic acid (TFA). Relative activity at each time point was determined from changes in the area under the insulin heterodimer peak following separation over RP-HPLC (Agilent 1100) using an Intrada WP-RP 50×3 (Imtakt) column. Buffer A was 0.1% TFA and Buffer B was 0.1% TFA in acetonitrile. The gradient was […] in 5 min followed by 30 to 60% B in 45 min, then 60 to 80% B for an additional 5 min. The flow rate was 0.2 mL/min and absorbance was measured at 280 nm. In order to evaluate the change in the intact insulin molecule a time 0 baseline was first established using 1 M IA and 0.1% TFA without the addition of ORP100S. The area under the intact insulin heterodimer peak was then determined and set as equivalent to 100%. After the reaction with ORP100S the area of the intact insulin peak (corresponding to retention time) was measured. The percent reduction in intact insulin was then calculated from the decrease in the area following reduction divided by the area at time 0 multiplied by 100.

The nature of data set [2]: stability analysis, lyophilized vs solution (DTNB and SEC-HPLC). It counts as physicochemical. As for the experimental part: Prior work, e.g. WO 2006/090127, teaches compositions for maintenance of thioredoxin in the reduced state. Significant experimentation was required to derive compositions able to keep thioredoxin reduced during storage, and these compositions were complex and required saccharide derivatives and EDTA as excipients. […] ORP-100 and ORP100S proteins were reduced with 100 mM DTT and exchanged over a NAP-5 column into volatile 20 mM ammonium acetate buffer at pH 5.5 to remove residual reductant. Half of the material was frozen at −80° C. then lyophilized while the remainder was kept in solution at either 5° C. or 40° C. for various time points (“PH5.5”). Lyophilized protein was reconstituted back into 20 mM ammonium acetate pH 5.5 immediately prior to evaluation at each time point (“Lyophilized”). Stability was assessed by measuring both free SH groups (DTNB chromogenic assay) and the percent monomers (SEC-HPLC).
For FIG. 3: PH5.5: ORP-100 or ORP100S protein maintained in liquid formulation of 20 mM ammonium acetate, pH 5.5 for 0, 3, 7, 14, 21, 28, 90, or 180 days. Lyophilized: ORP-100 or ORP100S protein stored in the lyophilized form at 5° C. or 40° C. for the 0, 3, 7, 14, 21, 28, 90, or 180 days and assayed following reconstitution in 20 mM ammonium acetate, pH 5.5. Percent free sulfhydryl (reduction state) at 5° C. Second panel: Percent monomer determined by SEC assay at 5° C. Third panel: Percent free sulfhydryl at 40° C. Fourth panel: Percent monomer determined by SEC assay at 40° C.
On the technique in general: Size exclusion chromatography separates by hydrodynamic size, large species first.

T1 sequence (P01308 25-54 limits assumed): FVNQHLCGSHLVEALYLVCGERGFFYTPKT
T1 sequence (P01308 90-110 limits assumed): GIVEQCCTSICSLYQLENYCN

B1: ORP100S: thioredoxin with monothiol active site, Cys35 and non-active Cys 62, 69 and 73 substituted with serine (SEQ ID NO:29) (protein)
chain: MVKQIESKTAFQEALDAAGDKLVVVDFSATWCGPSKMIKPFFHSLSEKYSNVIFLEVDVDDSQDVASESEVKSMPTFQFFKKGQKVGEFSGANKEKLEATINELV
modifications: synthetic peptide motif
On to B1, for which the “Relative % insulin reduction” value was determined as 100% in data set [1] (Ox:Red 0:100 mixture); 72% in data set [1] (Ox:Red 25:75 mixture); 51% in data set [1] (Ox:Red 50:50 mixture); 36% in data set [1] (Ox:Red 75:25 mixture); 8% in data set [1] (Ox:Red 100:0 mixture). Also, the “maximum insulin heterodimer reaction” value in data set [1] (fully reduced material, time and conditions used) was found to be 45%. Further, the “storage stability (free SH, percent monomer)” value in data set [2] (lyophilized form, six months at 40° C.) is recorded as “excellent storage stability”. The “monomer stability by SEC-HPLC vs. ORP-100” value in data set [2] (particularly first week of storage in liquid formulation) is “slightly better monomer stability”.
